The target in test [1] is HLA-A*6802 (A68) single antigen on Luminex beads (human). The experiment in a line: Luminex single antigen bead assay, regular beads (#7), IVIg 1:8.
The target of test [2] is HLA-A*7401 (A74) single antigen on Luminex beads (human). The description is as above.
Test [3] has as its target HLA-A*6901 (A69) single antigen on Luminex beads (human). Described as above.
The target in test [4] is HLA-A*8001 (A80) single antigen on Luminex beads (human). The test is described as above.
In test [5] the target is HLA-A*6802 (A68) single antigen on Luminex beads (human). Kind of test: Luminex single antigen bead assay, iBeads (#6), IVIg 1:8.
In test [6] the target is HLA-A*7401 (A74) single antigen on Luminex beads (human). The test is described as above.
Test [7] deals with HLA-A*6901 (A69) single antigen on Luminex beads (human). The description is as above.
The target of test [8] is HLA-A*8001 (A80) single antigen on Luminex beads (human). The test is described as above.
Test [9] has as its target HLA-A*6802 (A68) single antigen on Luminex beads (human). The experiment in a line: Luminex single antigen bead assay, iBeads vs regular beads, IVIg 1:8.
The target of test [10] is HLA-A*7401 (A74) single antigen on Luminex beads (human). The description is as above.
The target of test [11] is HLA-A*6901 (A69) single antigen on Luminex beads (human). The description is as above.
For test [12], the target named is HLA-A*8001 (A80) single antigen on Luminex beads (human). Described as above.

As to “IVIg GamaSTAN S/D (Talecris Biotherapeutics, Inc., USA) (antibody)”, the MFI is 2060 MFI in test [1]; 80 MFI in test [2]; 1880 MFI in [3]; 2700 MFI in test [4]; 2080 MFI in test [5]; 431 MFI in test [6]. The results for the MFI in test [7] and in test [8] were 2410 MFI and 2850 MFI, respectively. Moreover, the Difference % (iBead MFI against regular bead MFI) came to 1% in test [9], 437% in [10], 28% in test [11] and 5% in test [12].

The values above are taken from patent US10800847.
